Data reported in publication PMC3779476 (Nature, 2013).

Target: the molecule itself
Test: native gel or EMSA

B1: LamB (natural protein)
chain: VDFHGYARSGIGWTGSGGEQQCFQTTGAQSKYRLGNECETYAELKLGQEVWKEGDKSFYFDTNVAYSVAQQNDWEATDPAFREANVQGKNLIEWLPGSTIWAGKRFYQRHDVHMIDFYYWDISGPGAGLENIDVGFGKLSLAATRSSEAGGSSSFASNNIYDYTNETANDVFDVRLAQMEINPGGTLELGVDYGRANLRDNYRLVDGASKDGWLFTAEHTQSVLKGFNKFVVQYATDSMTSQGKGLSQGSGVAFDNEKFAYNINNNGHMLRILDHGAISMGDNWDMMYVGMYQDINWDNDNGTKWWTVGIRPMYKWTPIMSTVMEIGYDNVESQRTGDKNNQYKITLAQQWQAGDSIWSRPAIRVFATYAKWDEKWGYDYTGNADNNANFGKAVPADFNGGSFGRGDSDEWTFGAQMEIWW
stoichiometry N: 3
